# Assay results published in patent US20230355784A1.
# Square brackets hold non-standard residues; d marks the D form. Ends that are not written are not given here.
# Target: mAB anti V5 (Thermo Scientific) (mouse)
# Test: 1 ug/ml mouse anti V5 with increasing SADC, capture on streptavidin plate, bound IgG by ELISA
row,Binder,EC50 [µg/mL]
1,"IPNPLLGLDGGSGDYKDDDDKGK[BiotinAca]GC (peptide, part only; not given: albumin scaffold, not shown: large carriers, also: bound to albumin scaffold) [SADC with albumin scaffold carrying the tagged V5 peptide]",0.0279
2,"IPNPLLGLDGGSGDYKDDDDKGK[BiotinAca]GC (peptide, part only; not given: transferrin scaffold, not shown: large carriers, also: bound to transferrin scaffold) [SADC with transferrin scaffold carrying the tagged V5 peptide]",0.007
3,"IPNPLLGLDGGSGDYKDDDDKGK[BiotinAca]GC (peptide, part only; not given: haptoglobin scaffold, part only, also: bound to haptoglobin scaffold) [SADC with haptoglobin scaffold carrying the tagged V5 peptide]",0.0555
